# Measured values: the DeepSol protein solubility set
# Test: soluble on expression in E. coli; label from the status in PepcDB or PDB records
row,Sequence,soluble on expression in E. coli
1,MSLNRSSFDLLSTVEYGGCSAKLDPAKLSELLHDIPLPVDSRIMVDVSTHDDAGVYRLNDDTALIVTTDFFPPVCSDPYTFGRIAAANALSDVYAMGGRPLLVLNLTMFPSEGIPVEVLADILRGGQQTIDESGAFTMGGHTIDDPIPKYGLAVTGIVHPEHLVTNAGVRAGQCLVLTKPLGIGVAMAAHRLGLIGSEVYEAAIGQMCLLNRAGAELMQKYGIRGATDITGFGLLGHAKELAEASDVCLHIDSRSVPVLPECLSLLRDGCIPGATFRNLRFVGDMLRADCPTEYKMLLADAQTSGGLLMAVDADRAEDLVADLHRTGLHPFAAIIGYATDAEDAAKLIVTEGHHHHHH,soluble
2,MSLNRYLAAPEIKANETLVIADRYAYFNIPSWKGAGVAVPVFSLKSEKSFGVGDFGDLKRMVDWAVSTNQKVVQILPINDTTMTHTWTDSYPYNSISIYAFHPMYADLKQMGNLKDKETAAAFNRKQKELNALSAIDYEAVNRVKWEYFHQIFKQEGEKVLASKAFRSFFEANKDWLQPYAAFSYLRDLYHTPNFREWPQYSEYNAQEIEELCRPDTADYAHIAIYFYIQFNLHLQLLEATTYAREHGVVLKGDIPIGISRNSVEAWTEPYYFNLNGQAGAPPDDFSINGQNWGFPTYNWDVMENDGYKWWMKRFQKMAEYFDAYRIDHILGFFRIWEIPMNAVHGLLGQFVPALPMSREEIESYGLSFREEFLRPYIHEYFLGQVFGPHTDYVKQTFIEPTETYEVYRMRPEFDTQRKVEAFFAGKNDEDSIWVRDGLYALISDVLFVPDRKDPNLYHPRIGVQHDFIYRALNDWEKTAFNRLYDQYYYHRHNDFWQQQAMKKLPQLTQSTRMLVCGEDLGMIPDCVAWVMNDLRILSLEIQRMPKNPAEEFGRLNEYPYRSVCTFSTHDMSTLRGWWEEDYQQTQRYYNQMLGHYGTAPAIATPELCEEIVRNHLYSNSILCILSLQDWLSMDGKWRNPNVQEERINIPANPRHYWRYRMHLTLEQLMKAESLNEKIRELVKQTGRNEGHHHHHH,soluble
3,MSLNVGYLCTYTPKELIDAAGFTPIRIFAGDMQISLATAHIQSYACSQARGSLERALRGELDVQAVVFTRCCDTLMRLADIWERNTDMRVYNIEFPTRVEERSKDYYFNELKDFVKVLEEWGGGVTLESLRESLKLYHELEEKLKRLFSLKPDYEAAKRVQEMNVREAIKFVDERLRKAESEGGKPRVLITGSVCPFVEVYTLFEEAGFALKDDICTGTRFFTFNTPPREIGSVDEGLRFLVDKYFEKAPCPTKHFPNDDRFKYILEMAKDCDGVVFLLLKFCEPHFYDYPQLKERLEEMGKKVLLLELEFPIASIEQLRTRIEAFYEVIAEGGSHHHHHH,soluble
4,MSLNVIDLFSGVGGLSLGAARAGFDVKMAVEIDQHAINTHAINFPRSLHVQEDVSLLNAEIIKGFFKNDMPIDGIIGGPPCQGFSSIGKGNPDDSRNQLYMHFYRLVSELQPLFFLAENVPGIMQEKYSGIRNKAFNLVSGDYDILDPIKVKASDYGAPTIRTRYFFIGVKKSLKLDISDEVFMPKMIDPVTVKDALYGLPDIIDANWQSDSESWRTIKKDRKGGFYEKLWGQIPRNVGDTESIAKLKNNIISGCTGTLHSKIVQERYASLSFGETDKISRSTRLDPNGFCPTLRAGTARDKGSFQAVRPIHPYHPRVITPREAARLQGFPDWFRFHVTKWHSFRQIGNSVSPIVAEYILKGLYNLLNKRVQPEYLNHNSLEVREGHHHHHH,soluble
5,MSLNVIMAGIDYTLAPIDIREKFSFTKSTLQAVYNDLLKNENIFGAVIVSTCNRTELYLSCEEGLYINPFELLCDAANFDYEEYSNMHVLRTGVDVIRHLCELACGVKSQIWGEDQIITQVRNAIELAREMNASDSTLEVMFRIAVTSAKKVKTTLKLSSTERSIAYSALKIIKSKENISKALVIGNGEIGRLMASILIENGYDTTITLRRYRHGDNIIPLGAKTIEYVARYEKLKDCDVVISATLSPHYTLEIDKIDRIKYPRLFIDLAVPRDIDPKIKSLDNVELYDLDSIYAGEVDKNRTEQMIQVKKIIDKYIFDYYRWYEYRKRLVLTEGHHHHHH,soluble
6,MSLPASARWQALQEVSILNTGAELPWGGKFSGVAKLIDDAFDAIEKDNEKLKGVLQRISGYAVNEDTLRGLIILFSDTHFTRPTYNGEPVHLGAKDILGHVYEYFLSRFAQAEGKRSGQYFTPKSIVSLIVEMLEPYSGRVYDPAMGSGGFFVQTERFITAHQGNINNVSIYGQEFNPTTWKLAAMNMAIRGIDYDFGKYNADSFTQPQHIDKKMDFIMANPHFNDKEWWNESLADDPRWAYGTPPKGNANFAWLQHMIYHLSPNGKIALLLANGSMSSQTNNEGEIRKAIINADLVECMVALPGQLFTNTKIPACIWFLNRNKKRKGEVLFIDARQIGYMKDRVLRDFTADDIAKIADTLHAWQTSDGYEDQAAFCKSATLEEIKNNDFVLTPGRYVGTAEQEDDGVPFAEKMQNLTALLKEQFAKSAELEAEIKKNLGGLGYEEGHHHHHH,not soluble
7,MSLPFITKISTQKKNTERFNIFLDDKYAFSVDADVLVKFELKKGKELDDLDIIEIQYGDEVKKGFNRALDFLSYRMRSTKEVEDHLKKKETSPPVIAEVIHRLNDYKYLNDQEFAAAYVSTHKKTNGKGPDVLFRELRAKGIDDDTIKEALSSFSFEDQTREAVKHVEKLLKKDKKLSTKELKQRAQLQLQRKGFSFDVISAAMDQIEYENDEDTEKEALRLHAEKAFRKYRYDGSYESAMKVKQFLFRKGFSLDLIEQLLQEEEYEGHHHHHH,soluble
8,MSLPQPKKDKPDTPLRSDAQRNRERILAVATEELTHCANAPLSAIAKKAGVGQGTFYRNFPNREALVLEIYRYGMQQVAEAAPEMLATGEPDLALRQWMDRLAEFAMTKAGLADAIRLVTSAPGAPEKPRPTPLEDAAELLLRANHEAGTIRPGVTGDDFFLVLGGLWLIDPGENWQPRVTRFLDLVMDGLRAGAPGREGHHHHHH,soluble
9,MSLQFFDRKETMKFPSDFIEKYKDLLGAEAEEFFTSFDQEAVSAYRINPLKKQQKDYPDPIPGTPWGYYGKISGKSSDHATGLVYSQEPAAQMVAQVAAPSKGSRVLDLAAAPGGKSTHLLSYVDNTGLLVSNEIDFTRSKVLVENLERFGAKNVVVNHTSADKLAEVFKNYFDMIVFDGPCSGEGMFRKDPDAIQYWHKDYPSELAQLQKDILADGLKMLAPGGQLVYSTCTWSPEENEGVVAWILENYPDLELVAIPKLSGMSDGIDFPETARMYPHHFKGEGQFVAKFQDKRMPEQSCIKEGKTNLNKEQKQLWDDFVKKHLKLPLDGLLQVFGDNLYLLPRGLPDLSKVKIARNGLHLGIFKKKRFEPSFALGIALTSDEVVSSIELTQEQFAQYASGNVVTLDQTLENGWYQLLVDGNGFGFAKVIGNTLKNYYPKGLRFHEGHHHHHH,soluble
10,MSLQFSVLASGSTGNAFYLETEDHAFLVDAGLSGKAMDGLMAQIGRKLDDVDGIFVTHEHSDHIKGLGVVARKYKLPIYANEKTWKAMENQIGKIDTDQKFVFPMETVKSFGGLDVESFGVSHDAAEPMFYVFHYSGRKLALMTDTGYVSDRMKGIIRSANVFVFESNHDVGMLQMGRYPWSIKRRILSDVGHVSNEDAALAMTDVIGDETSRIYLAHLSQDNNMKELARMSVQQTLASKGFVTGETFDLYDTDPKKATPLWLYNFSMLEHHHHHH,not soluble
11,MSLQKRVTDEDIKERLDKIGFRIAVMSGKGGVGKSTVTALLAVHYAKQGKKVGILDADFLGPSIPHLFGLEKGKVAVSDEGLEPVLTQRLGIKVMSIQFLLPKRETPVIWRGPLIAGMIREFLGRVAWGELDYLLIDLPPGTGDAPLTVMQDAKPNGAVIVSTPQELTAAVVEKAITMAEQTKTAVLGIVENMAYFECPNCGERTYLFGEGKASELARKYKIEFITEIPIDSDLLKLSDLGRVEEYEPDWFEFFPYEGGSHHHHHH,soluble
12,MSLQLDEYLRQLAPSMTQWRRDFHLHAESGWLEFRTASKVADILDGLGYQLALGRDVIDADSRMGLPDEETLARAFERAREQGAPERWLPAFEGGFAGVVATLDTGRPGPTLAFRVDMDALDLNEQHDDSHRPHRDHFASCNAGMMHACGHDGHTAIGLGLAHVLKQYAAQLNGVIKLIFQPAEEGTRGARAMVAAGVVDDVDYFTAIHIGTGVPAGTVVCGGDNFMATTKFDVQFSGVAAHAGGKPEDGRNALLAAAQAALGLHAIPPHSAGASRVNVGVMQAGTGRNVVPSSALLKVETRGESEAINQYVFERAQHVVAGAAAMYEARYELRMMGAATASAPSPAWVDYLREQAARVPGVQQAVDRIAAPAGSEDATLMMARVQARGGLASYMIFGTELSAGHHNEKFDFDESVMAVAVETLARVALNFPWQRGVEGHHHHHH,soluble
13,MSLQLEYPLTNHMKRNMVLTKENQVIAYYRIRSETVGLTDFEKKRKTKKKVARTLKRLQENEGFEIVLLPVNADIRGKMGGMRQLVDKENHSVAVDKLMKTAQYLENEIGMVYEYIWLIGVPLVKKERSIDIKETFSTALNNLSEKVVKGLGLEVGVAEDWEEAYKDQEQEVYQNLSELLVERLTEDELYYYQAYQFLNNIQHEKKELLTSQNLDNLLANKITPFRGGLELSNEFGKSYIAHLPLGDCGVTIDGNHLLELVQKMSYPVSVKLQAGFAETKGQLALSGRSARARTRTKNIMEEAHLAGSKQKRKIVEGQHSLDDLDQKIDDDIPIIDWKAVLVISGNSKKQLRERKKNLMNRLDSLGIPLIRATFDNVYLFQATLLGNFQRFSTSNWQHTSTLETFSELNFFTSLHAGTKTGFYLGRVDATLEEKESRKQIVSGSKNIVYMNLLLANKQNIEGKKTNNPHWLVSGDTGNGKSVFSKWLFLYSSLLDVKVLYIDPKKEVRQQFMRTINDPEYQRKYPLDVAFIKTFNFVTLDVRKKENHGVLDPIVLFDETEAIATAKAMLNNINEDKWKMPHKTAINETVAEVVAERKAGKQVGFWHVIERLISHSEKDVHEMGRFLLSTIKGSILELAFSHGEVEGLSFEKKVTILEIEDLDLPTDRHDELDENQRLSVTLMFALGTFCSKFGSRNRKEETVTFFDEAWIFQSSPEGQKILKSMKRIGRSFNNFMVLITQSVNDVLDNGDGTGFGTVVCFDEVDNREGILRYLKLPVNEINLKWVSNMIQGQCLMKDMFNQVNRIVIDVIFEEWLELFETVDEGHHHHHH,soluble
14,MSLQNLSPTQREILLALTDLYNRQKRMIKSKEVADIIGKDEGTVRNIILSLKVLGLVESKPGPNGGYMPTLKAYEIINNPTLTPILDKLNLYKGMIETDIKVENIEIIDITNPSANRVLLKVEGDLRKLKIGDAVRLGPTPYSRLVIEGLILHLDENSKEIVVDVKRMISIPKEKVKNLISKKLIALKPETSLREASMIFYKEAIRGAPVINQDEKVVGILTTADIIKAFFEGNYTAKVSDYMKTNVISINENEDLLDAIRKMIIYNVGRLLVLDSNNKAVGIVTRTDILRSIAGLEGLWTTEGHHHHHH,soluble
15,MSLQPAPFLILDDDDVFAQTLARALTRRGFAPQIAHTGGEALSLARQTPFAYVTVDLHLAASDRGLMPHGGTDSGLHWIAPLRQALPEARMLVLTGYASIATAVQAVKLGADEYLAKPANVDSILLALQVGVSEAVAEQTMENPAPLSVARLEWEHIQRVLSEHGGNISATARALNMHRRTLQRKLGKRPVAEGHHHHHH,soluble
16,MSLQSKTAKLPDNDRNRPLIQTFNDAQQKVWFDDALLHEDPSQCCNPEFWQQNGKVLGSATGRGTTWFVQLQQTQGALRHYRRGGLFGKLVADSYWFTGWEKTRSYQEFMLLNHLRDAGVNVPRPIAARVQKHGLLYKADLLSEKVPNARDLVSILQESPISDELYRKIGREIRKMHDAQVNHTDLNIHNILIDDQEKVWIIDFDKCYVQIGDSWKQGNLKRLKRSFEKEVCKRGINWSLEAFAIISSYKHEEEGHHHHHH,soluble
17,MSLQWAKQSEQNVYSNRWFSVNLADVLLPDGRHLDHFLIRMRPVAVATVVNEADEVLLLWRHRFITDSWGWELAAGVVEDGEDVAVAAARELEEETGWRPGPLHHLMSVEPSNGLTDARHHVYWAEEGTYVGHPVDDFESERREWVPLKLVPDLVARGEVPAANMAAALLLLHHLRLGRDQEGHHHHHH,soluble
